Experimental data reported in patent publication US9273290B2, “Method for producing phosphite dehydrogenase protein and use thereof” (priority 2011, dated 2016).
Values joined by “and” are separate entries in the source; they are usually repeats but may differ in a detail not shown here. Equal entries are not always repeated.

B1: PtxDPst: fusion protein: phosphite dehydrogenase protein of P stutzeri WM88 (SEQ ID NO: 3), C-terminal labeled with a His tag (protein, listed as Pseudomonas stutzeri)
chain: MLPKLVITHRVHDEILQLLAPHCELMTNQTDSTLTREEILRRCRDAQAMMAFMPDRVDADFLQACPELRVVGCALKGFDNFDVDACTARGVWLTFVPDLLTVPTAELAIGLAVGLGRHLRAADAFVRSGEFQGWQPQFYGTGLDNATVGILGMGAIGLAMADRLQGWGATLQYHEAKALDTQTEQRLGLRQVACSELFASSDFILLALPLNADTQHLVNAELLALVRPGALLVNPCRGSVVDEAAVLAALERGQLGGYAADVFEMEDWARADRPRLIDPALLAHPNTLFTPHIGSAVRAVRLEIERCAAQNIIQVLAGARPINAANRLPKAEPAAC
modifications: C-terminal His tag
B2: PtxD4506: fusion protein: phosphite dehydrogenase protein of SEQ ID NO: 1 (from Ralstonia sp. strain 4506), C-terminal labeled with a His tag (protein)
chain: MKPKVVLTHWVHPEIIELLSASADVIPNTTRETLPRSEVIARAKDADALMAFMPDSIDSAFLEECPKLRVIGAALKGYDNFDVNACTRHGVWLTIVPDLLTIPTAELTIGLLLGLTRHMLEGDRQIRSGHFQGWRPTLYGSGLTGKTLGIIGMGAVGRAIAQRLAGFEMNLLYCDPIPLNAEQEKAWHVQRVTLDELLEKCDYVVPMVPMAAETLHLIDATALAKMKTGSYLINACRGSVVDENAVIAALASGKLAGYAADVFEMEEWIRADRPQAIPKALLDNTAQTFFTPHLGSAVKEVRLEIERQAAMNIIQALAGEKPMGAINQPYPGVKAA
modifications: C-terminal His tag; Ralstonia sp. 4506

Columns and labels:
[1] = Heat resistance of phosphite dehydrogenase protein (specific activity vs temperature, FIG. 3); type: biochemical; conditions: 0.2 mg/mL in 50 mM MOPS pH 7.4, kept at 10° C. to 60° C.; 1 mM NAD+, 1 mM phosphorous acid
Procedure: After the ultracentrifugation, a supernatant was collected to be used as a crude extract for measuring phosphite dehydrogenase activity. A total of 1000 μL of a reaction solution was prepared which contained the crude extract (protein amount: 10 μg), NAD^+ (1 mM), phosphorous acid (1 mM), and a MOPS-KOH buffer (20 mM, pH 7.4). A temperature of the reaction solution was elevated to 45° C., so that a reaction was started. A sample was collected, each in an amount of 100 μL, at predetermined time intervals for a predetermined period of time (0 to 180 minutes), and absorbance (340 nm) of each sample was measured. Phosphite dehydrogenase activity was evaluated in terms of an amount of NADH generated by 1 mg of protein per unit time.
PtxD4506 and PtxDPst, which were purified with use of the HisTrap column in [3. Expression of Phosphite Dehydrogenase Protein Using Escherichia Coli] were examined in terms of heat resistance. The following description discusses how measurement of heat resistance was carried out.
Each of the purified PtxD4506 and PtxDPst was added to 50 mM of a MOPS buffer (pH 7.4) so as to have a final concentration of 0.2 mg/mL. 100 μL of an enzyme solution thus obtained was supplied to a 1.5-mL tube, and 100 μL of mineral oil was added to the enzyme solution in order to prevent evaporation. A temperature of the tube was maintained at 10° C. to 60° C. for 12 hours. […]

[2] = Activity of phosphite dehydrogenase protein in the presence of inhibitor (relative OD340); type: biochemical; conditions: no inhibitor = 100.0; for relative value of OD340, average: NaCl, average of experiments
Procedure: PtxD4506 and PtxDPst, which were purified with use of the HisTrap column in [3. […] An experimental method was based on a method described in the literature “Costas et al., Journal of Biological Chemistry, 2001, 276, 17429-17436.” The experimental method is briefly described below.
A reaction solution was prepared by mixing 100 μL of 100 mM MOPS-KOH (pH 7.25), 50 μL of 10 mM NAD, 5 μL of 5 mM phosphite, 50 μL of 40 mM inhibitor of various kinds (arsenite, nitrate, sulfate, or NaCl), 294 μL of H2O, and 1 μL of 0.5 mg/mL protein-containing solution (a PtxD4506-containing solution, a PtxDPst-containing solution, or a liquid which contained no protein (negative control)).
The reaction solution was reacted for 60 minutes. Note that the reaction solution containing the PtxD4506-containing solution was reacted at 45° C., and the reaction solution containing the PtxDPst-containing solution was reacted at 30° C. Subsequently, OD340 was measured. A relative value of OD340 of each sample was calculated relative to 100 of a value of OD340 of the reaction solution containing the liquid which contained no protein (negative control). Note that each experiment was conducted 4 times or more, and an average of relative values obtained in the 4 or 5 experiments was also calculated.

[3] = Solubility of His-tagged phosphite dehydrogenase forcibly expressed in E. coli (supernatant vs sediment, SDS-PAGE); type: physicochemical, Escherichia coli; conditions: expressed in E. coli Rosetta2 (DE3), disruption buffer 50 mM Tris-HCl pH 7.4, 50 mM NaCl, 0.1% Tween20, centrifuged 15,000 rpm, CBB
Text: By a well-known method, the base sequence of SEQ ID NO: 2 or a phosphite dehydrogenase gene (SEQ ID NO: 4) of P stutzeri WM88 was inserted into a plasmid pET21b (produced by Novagen) (an amino acid sequence of the protein encoded by the base sequence of SEQ ID NO: 4 is shown in SEQ ID NO: 3) to prepare (i) an expression vector of a fusion protein (see “PtxD4506” in FIG. 2) in which the C-terminal of the phosphite dehydrogenase protein of SEQ ID NO: 1 is labeled with a His tag or (ii) an expression vector of a fusion protein (see “PtxDPst” in FIG. 2) in which the C-terminal of the phosphite dehydrogenase protein of P stutzeri WM88 is labeled with a His tag.
A competent cell Rosetta2 (DE3) (produced by Novagen) was transformed by a well-known method with use of each of the expression vectors.
Transformants thus obtained were inoculated on a 200 mL LB culture medium (containing 10 g of polypeptone, 5 g of yeast extract, and 5 g of NaCl per liter of the culture-medium), and were cultured at 37° C. until OD600 reached 0.5. Subsequently, IPTG (isopropyl thiogalactoside) was added to the culture so as to have a concentration of 1 mM. Then, the culture was incubated for another 3 more hours at 28° C.
The culture was centrifuged at 6,000 rpm for 15 minutes, and bacteria, which were sediment, were collected. The bacteria were suspended in a buffer for disruption (50 mM Tris-HCl (pH: 7.4), 50 mM NaCl), and a suspension thus obtained was subjected to an ultrasonic treatment, so that the bacteria were disrupted. Subsequently, Tween20 (Registered Trademark) was added to a resultant solution of the disrupted bacteria so as to have a final concentration of 0.1%, and was left still on ice for 15 minutes. Note that the buffer for disruption containing the disrupted bacteria is indicated as “T” in FIG. 2.
The buffer for disruption containing the disrupted bacteria was centrifuged at 15,000 rpm and 4° C. for 15 minutes. After the centrifugation, a resultant product was divided into a supernatant and sediment. In FIG. 2, the supernatant is indicated as “S” and the sediment is indicated as “I.”
The buffer for disruption (T) containing the disrupted bacteria, the supernatant (S), and the sediment (I) described above were separated by SDS-PAGE. Subsequently, an acrylamide gel was dyed with CBB stain one (produced by Nacalai), and an amount of the phosphite dehydrogenase protein was measured.

[4] = Reaction kinetic analysis of phosphite dehydrogenase protein (NADH production rate vs NAD+ concentration); type: biochemical; conditions: ratio PtxD4506 / PtxDPst
Procedure: PtxD4506 and PtxDPst, which were purified with use of the HisTrap column in [3. Expression of Phosphite Dehydrogenase Protein By Using Escherichia Coli], were compared with each other in terms of reaction rate. The following description discusses how measurement of reaction rates was carried out.
Reaction rates of respective PtxD4506 and PtxDPst were calculated on the basis of (Reaction formula 1) shown in the section [Background Art].
Specifically, in the reaction system of (Reaction formula 1), a production rate of NADH was measured with use of 7.5 μg of each of the fusion proteins PtxD4506 and PtxDPst while a concentration of a substrate (NAD^+) was gradually changed from 0.5 μM to 200 μM. […]
Based on the measured concentration of the substrate (NAD^+) and the measured production rate of NADH, values of Km (μM), Vmax (μmol/min/m), Kcat (min^−1), and Kcat/km were calculated in accordance with a well-known enzyme kinetic method (see, for example, “Fundamental Experiment Method of Proteins and Enzymes (2nd revised edition), Nankodo Co., Ltd.”). Note that the experiment was carried out three times, and values of Km, Vmax, Kcat, and Kcat/km were calculated in each of the experiments. Then, for each of Km, Vmax, Kcat, and Kcat/km, an average of the values calculated in the three experiments was obtained and defined as the value of each of Km, Vmax, Kcat, and Kcat/km. […]

| Molecule | temperature at which specific activity is the highest (optimum temperature) [1] | relative value of OD340, average [2] | fusion protein present in the sediment (I) [3] | fusion protein present in the supernatant (S) [3] | relative value of OD340 ([2]; NaCl (50 μL of 40 mM in reaction solution), single experiments 1-5, 60 min, PtxD4506 at 45° C., PtxDPst at 30° C.) | Km relative to that of PtxDPst [4] |
| --- | --- | --- | --- | --- | --- | --- |
| B1 | about 35 °C | 89.3 | approximately 81.6% | approximately 18.4% | – | – |
| B2 | about 50 °C | 93.6 | approximately 8.6% | approximately 91.4% | 92.6 and 96.9 and 95.7 and 95.9 and 87.1 | about a third |
